Assay results from publication PMC2185595 (The Journal of Cell Biology, 2000).

Columns and labels:
[1] = target: Ypt7 T22N (two-hybrid fusion) (S. cerevisiae, UniProt P32939 1-208, T22N | C206S | C208S); assay: two-hybrid
[2] = target: T1, Ras1 (two-hybrid fusion) (UniProt P01119 1-309); assay: two-hybrid
T1 sequence: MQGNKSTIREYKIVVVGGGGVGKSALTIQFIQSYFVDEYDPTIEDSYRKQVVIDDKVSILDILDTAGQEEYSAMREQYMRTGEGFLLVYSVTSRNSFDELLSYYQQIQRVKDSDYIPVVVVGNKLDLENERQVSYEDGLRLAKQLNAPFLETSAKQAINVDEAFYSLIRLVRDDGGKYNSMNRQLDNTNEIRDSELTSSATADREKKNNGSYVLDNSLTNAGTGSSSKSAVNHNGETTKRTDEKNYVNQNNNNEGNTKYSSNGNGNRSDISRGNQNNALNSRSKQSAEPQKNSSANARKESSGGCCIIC

[3] = target: Ypt7 I41S (two-hybrid fusion) (S. cerevisiae, UniProt P32939 1-208, I41S | C206S | C208S); assay: two-hybrid
[4] = target: Ypt7 Q68L (two-hybrid fusion) (S. cerevisiae, UniProt P32939 1-208, Q68L | C206S | C208S); assay: two-hybrid
[5] = target: Ypt7 D129A (two-hybrid fusion) (S. cerevisiae, UniProt P32939 1-208, D129A | C206S | C208S); assay: two-hybrid
[6] = target: Ypt7 T40A (two-hybrid fusion) (S. cerevisiae, UniProt P32939 1-208, T40A | C206S | C208S); assay: two-hybrid
[7] = target: Ypt7 (two-hybrid fusion, ypt7 C206S, C208S) (S. cerevisiae, UniProt P32939 1-208, C206S | C208S); assay: two-hybrid
[8] = target: T2, Vps21 (two-hybrid fusion) (S. cerevisiae, UniProt P36017 1-210); assay: two-hybrid
T2 sequence: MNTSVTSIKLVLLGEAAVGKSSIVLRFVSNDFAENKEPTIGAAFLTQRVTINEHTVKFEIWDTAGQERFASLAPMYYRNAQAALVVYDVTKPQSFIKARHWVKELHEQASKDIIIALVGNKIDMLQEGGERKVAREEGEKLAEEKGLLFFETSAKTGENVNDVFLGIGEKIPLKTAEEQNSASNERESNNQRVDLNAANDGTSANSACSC

[9] = target: T3, Vps11 (two-hybrid fusion) (S. cerevisiae, UniProt P12868 1-1029); assay: two-hybrid
T3 sequence: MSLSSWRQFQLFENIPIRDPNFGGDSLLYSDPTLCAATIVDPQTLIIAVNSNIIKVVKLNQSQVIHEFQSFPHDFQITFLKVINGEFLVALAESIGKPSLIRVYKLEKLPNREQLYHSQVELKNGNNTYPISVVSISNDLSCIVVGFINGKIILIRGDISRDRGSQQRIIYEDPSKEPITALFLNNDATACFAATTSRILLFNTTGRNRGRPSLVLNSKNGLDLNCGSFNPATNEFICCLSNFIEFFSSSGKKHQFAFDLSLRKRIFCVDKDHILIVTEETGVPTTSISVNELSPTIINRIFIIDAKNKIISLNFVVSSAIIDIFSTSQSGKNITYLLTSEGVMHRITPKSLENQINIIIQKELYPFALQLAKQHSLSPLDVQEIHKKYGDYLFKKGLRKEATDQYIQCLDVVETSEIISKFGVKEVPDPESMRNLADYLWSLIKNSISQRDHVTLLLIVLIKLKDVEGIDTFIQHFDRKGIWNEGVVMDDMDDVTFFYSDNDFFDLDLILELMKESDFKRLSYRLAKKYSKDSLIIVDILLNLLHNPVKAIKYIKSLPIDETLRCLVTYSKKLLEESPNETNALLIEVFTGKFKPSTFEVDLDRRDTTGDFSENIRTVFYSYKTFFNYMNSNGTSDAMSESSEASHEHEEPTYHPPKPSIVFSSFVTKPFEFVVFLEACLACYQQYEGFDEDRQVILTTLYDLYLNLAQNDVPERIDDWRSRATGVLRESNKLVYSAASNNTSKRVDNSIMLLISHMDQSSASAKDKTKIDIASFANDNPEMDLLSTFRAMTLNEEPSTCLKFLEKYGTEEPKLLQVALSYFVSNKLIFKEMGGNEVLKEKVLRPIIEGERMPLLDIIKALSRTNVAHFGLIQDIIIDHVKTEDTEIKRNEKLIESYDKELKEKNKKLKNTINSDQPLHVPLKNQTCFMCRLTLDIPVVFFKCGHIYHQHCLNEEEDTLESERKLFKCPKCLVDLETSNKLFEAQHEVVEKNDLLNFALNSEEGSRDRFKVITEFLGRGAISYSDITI

[10] = target: T4, protein A–Vps39 (S. cerevisiae, UniProt Q07468 1-1049); assay: pull-down
T4 sequence: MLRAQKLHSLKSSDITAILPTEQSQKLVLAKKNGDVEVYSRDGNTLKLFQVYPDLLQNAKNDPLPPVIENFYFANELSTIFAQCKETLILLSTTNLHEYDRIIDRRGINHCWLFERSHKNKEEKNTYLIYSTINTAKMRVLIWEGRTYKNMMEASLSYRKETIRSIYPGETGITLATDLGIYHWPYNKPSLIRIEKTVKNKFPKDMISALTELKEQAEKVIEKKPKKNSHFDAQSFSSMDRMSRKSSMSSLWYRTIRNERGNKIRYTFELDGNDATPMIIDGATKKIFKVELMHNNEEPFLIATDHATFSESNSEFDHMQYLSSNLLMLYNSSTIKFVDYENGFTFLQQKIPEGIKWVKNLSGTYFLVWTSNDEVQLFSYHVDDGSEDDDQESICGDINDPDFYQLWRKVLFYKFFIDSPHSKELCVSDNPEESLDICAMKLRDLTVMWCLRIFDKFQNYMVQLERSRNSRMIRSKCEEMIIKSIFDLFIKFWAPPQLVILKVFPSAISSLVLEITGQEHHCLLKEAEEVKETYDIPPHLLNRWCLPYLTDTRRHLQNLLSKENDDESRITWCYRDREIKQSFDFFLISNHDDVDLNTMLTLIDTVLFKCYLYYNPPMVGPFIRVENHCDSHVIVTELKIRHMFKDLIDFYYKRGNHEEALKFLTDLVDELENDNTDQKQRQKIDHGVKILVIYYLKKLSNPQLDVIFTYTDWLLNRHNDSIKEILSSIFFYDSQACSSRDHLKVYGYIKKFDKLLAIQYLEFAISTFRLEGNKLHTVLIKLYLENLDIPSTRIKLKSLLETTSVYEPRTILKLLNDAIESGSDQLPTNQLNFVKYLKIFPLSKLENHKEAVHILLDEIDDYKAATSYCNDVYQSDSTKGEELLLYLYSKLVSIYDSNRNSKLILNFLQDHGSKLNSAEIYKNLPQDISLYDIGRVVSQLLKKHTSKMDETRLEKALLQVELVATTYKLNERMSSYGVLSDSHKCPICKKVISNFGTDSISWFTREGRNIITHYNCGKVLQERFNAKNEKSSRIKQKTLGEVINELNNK

B1: Vps39 (two-hybrid fusion) (natural protein)
chain: T4 sequence
For B1, the β-galactosidase activity [1] was ~5 U, the β-galactosidase activity [2] was < 0.25 U and the β-galactosidase activity [3] was ~13 U. The β-galactosidase activity [4] was ~3 U, the β-galactosidase activity [5] was 31 U and the β-galactosidase activity [6] was ~13 U. The β-galactosidase activity [7] was ~4 U, the β-galactosidase activity [8] was < 0.25 U and the β-galactosidase activity [9] was 2.8 U.

B2: GST-Ypt7 (natural protein)
chain: MSSRKKNILKVIILGDSGVGKTSLMHRYVNDKYSQQYKATIGADFLTKEVTVDGDKVATMQVWDTAGQERFQSLGVAFYRGADCCVLVYDVTNASSFENIKSWRDEFLVHANVNSPETFPFVILGNKIDAEESKKIVSEKSAQELAKSLGDIPLFLTSAKNAINVDTAFEEIARSALQQNQADTEAFEDDYNDAINIRLDGENNSCSC
B2: binds [10].
